# B1: B9-30 mAb (antibody, V domains shown)
# VH: QVQLQQPGAEVVKPGAPVKLSCKASGYPFTNYWMNWVKQRPGRGLEWIGRIDPSNSEIYYNQKFKDKATLTVDKSSSTAYIQLSSLTSEDSAVYYCASGHYGSIFAYWGQGTTLTVSS
# VL: VQITQSPSYLAASPGETITINCRASKSISKYLAWYQEKPGKTNKLLIYSGSTLQSGIPSRFSGSRSGTDFTLIISSLEPEDSAMYYCQQHNEYPLTFGAGTKLELKR
# B2: B9-30 mAb (C. difficile TcdB neutralizing antibody) (antibody, V domains shown)
# VH: B1 VH
# VL: B1 VL
# Key:
# [1] = target: wild-type C. difficile toxin B (TcdB) (Clostridium difficile strain 630, UniProt P18177 2-2366); assay: binding specificity, Table 18
# wild-type C. difficile toxin B (TcdB), sequence (P18177 2-2366 limits assumed): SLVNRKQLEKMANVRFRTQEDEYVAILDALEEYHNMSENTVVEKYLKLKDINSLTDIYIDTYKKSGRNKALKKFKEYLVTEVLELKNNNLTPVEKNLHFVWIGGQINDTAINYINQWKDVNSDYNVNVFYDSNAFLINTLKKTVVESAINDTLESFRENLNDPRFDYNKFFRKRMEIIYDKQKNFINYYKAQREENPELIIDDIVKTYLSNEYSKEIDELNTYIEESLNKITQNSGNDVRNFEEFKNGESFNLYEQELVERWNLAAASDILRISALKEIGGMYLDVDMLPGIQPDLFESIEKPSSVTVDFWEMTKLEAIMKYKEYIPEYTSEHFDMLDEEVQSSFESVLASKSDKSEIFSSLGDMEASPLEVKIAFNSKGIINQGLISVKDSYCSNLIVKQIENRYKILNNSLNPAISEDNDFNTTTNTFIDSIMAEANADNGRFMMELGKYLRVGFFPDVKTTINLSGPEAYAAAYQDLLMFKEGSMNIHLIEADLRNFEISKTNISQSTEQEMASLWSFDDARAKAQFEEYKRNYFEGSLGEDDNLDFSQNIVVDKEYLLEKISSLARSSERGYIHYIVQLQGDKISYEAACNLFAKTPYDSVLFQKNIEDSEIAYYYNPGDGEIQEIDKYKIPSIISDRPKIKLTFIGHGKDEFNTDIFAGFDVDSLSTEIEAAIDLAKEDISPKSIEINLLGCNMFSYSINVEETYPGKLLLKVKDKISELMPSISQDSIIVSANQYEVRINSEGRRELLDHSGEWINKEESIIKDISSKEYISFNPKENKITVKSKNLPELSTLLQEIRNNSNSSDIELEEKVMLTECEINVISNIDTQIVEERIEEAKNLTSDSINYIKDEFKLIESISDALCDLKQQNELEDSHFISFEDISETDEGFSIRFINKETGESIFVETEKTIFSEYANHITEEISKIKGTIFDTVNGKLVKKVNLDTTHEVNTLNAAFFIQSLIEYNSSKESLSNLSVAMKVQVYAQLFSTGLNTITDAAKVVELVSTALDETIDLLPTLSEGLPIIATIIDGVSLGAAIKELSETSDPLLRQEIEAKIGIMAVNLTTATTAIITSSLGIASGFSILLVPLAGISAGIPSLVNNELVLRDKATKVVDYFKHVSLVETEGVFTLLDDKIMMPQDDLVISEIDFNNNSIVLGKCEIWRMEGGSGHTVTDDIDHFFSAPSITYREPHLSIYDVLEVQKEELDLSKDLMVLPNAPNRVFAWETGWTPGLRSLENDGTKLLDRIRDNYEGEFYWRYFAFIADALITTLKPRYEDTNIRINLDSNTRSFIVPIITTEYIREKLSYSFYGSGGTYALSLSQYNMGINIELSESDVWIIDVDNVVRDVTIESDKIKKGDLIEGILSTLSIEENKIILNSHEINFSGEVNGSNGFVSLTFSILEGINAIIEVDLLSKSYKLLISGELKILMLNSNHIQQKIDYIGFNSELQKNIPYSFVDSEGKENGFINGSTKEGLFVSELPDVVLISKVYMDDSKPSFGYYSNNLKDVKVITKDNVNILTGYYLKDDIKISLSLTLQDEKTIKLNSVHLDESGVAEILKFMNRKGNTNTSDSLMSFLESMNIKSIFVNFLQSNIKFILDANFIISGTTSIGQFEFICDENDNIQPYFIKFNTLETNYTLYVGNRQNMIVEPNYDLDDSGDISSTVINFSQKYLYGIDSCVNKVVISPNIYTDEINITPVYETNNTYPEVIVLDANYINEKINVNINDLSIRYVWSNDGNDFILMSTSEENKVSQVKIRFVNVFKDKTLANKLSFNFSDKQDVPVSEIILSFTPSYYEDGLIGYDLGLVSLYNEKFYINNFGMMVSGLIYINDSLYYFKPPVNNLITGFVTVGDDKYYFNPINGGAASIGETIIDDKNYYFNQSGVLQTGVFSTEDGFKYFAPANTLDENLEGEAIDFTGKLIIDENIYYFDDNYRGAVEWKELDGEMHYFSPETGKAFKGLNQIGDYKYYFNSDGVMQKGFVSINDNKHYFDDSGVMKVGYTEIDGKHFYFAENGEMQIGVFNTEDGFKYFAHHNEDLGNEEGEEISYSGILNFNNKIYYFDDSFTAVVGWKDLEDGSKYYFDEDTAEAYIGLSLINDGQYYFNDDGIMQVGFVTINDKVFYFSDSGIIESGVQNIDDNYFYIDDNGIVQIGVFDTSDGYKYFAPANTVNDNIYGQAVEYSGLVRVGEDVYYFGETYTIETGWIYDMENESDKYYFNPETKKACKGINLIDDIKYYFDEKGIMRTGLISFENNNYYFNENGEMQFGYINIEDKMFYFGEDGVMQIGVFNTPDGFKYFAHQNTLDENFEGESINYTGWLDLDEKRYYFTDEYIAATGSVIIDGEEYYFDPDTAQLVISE
# [2] = target: Commercial, Control Toxin B wt (List Biologicals) (Clostridium difficile, UniProt P18177 2-2366); assay: dot blot, non-denaturing conditions
# Commercial, Control Toxin B wt (List Biologicals), sequence (P18177 2-2366 limits assumed): as above
Binder,binding result [1],binding result [2]
B1,binds,
B2,,binds

# — patent USRE46376 (Wyeth LLC, dated 2017)
